How the values were obtained:
[1] = biological target: T1, HMGS with 12 SH3 peptide ligands recombined to the C-terminus, P54839
T1 sequence (P54839 whole entry, looked up): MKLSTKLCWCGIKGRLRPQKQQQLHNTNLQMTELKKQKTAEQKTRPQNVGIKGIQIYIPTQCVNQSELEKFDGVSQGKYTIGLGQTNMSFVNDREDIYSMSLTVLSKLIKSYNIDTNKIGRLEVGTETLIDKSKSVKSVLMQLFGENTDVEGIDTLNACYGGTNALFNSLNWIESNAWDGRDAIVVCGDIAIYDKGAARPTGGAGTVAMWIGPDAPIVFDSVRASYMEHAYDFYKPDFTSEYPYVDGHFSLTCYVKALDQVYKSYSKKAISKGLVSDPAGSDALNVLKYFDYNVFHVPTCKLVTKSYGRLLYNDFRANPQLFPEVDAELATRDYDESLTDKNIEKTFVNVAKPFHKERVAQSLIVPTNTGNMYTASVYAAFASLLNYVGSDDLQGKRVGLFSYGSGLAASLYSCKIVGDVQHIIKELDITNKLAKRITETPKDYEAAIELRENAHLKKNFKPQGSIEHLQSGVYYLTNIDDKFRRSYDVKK

[2] = biological target: T2, HMGS with 6 SH3 peptide ligands recombined to the C-terminus, P54839
T2 sequence (P54839 whole entry, looked up): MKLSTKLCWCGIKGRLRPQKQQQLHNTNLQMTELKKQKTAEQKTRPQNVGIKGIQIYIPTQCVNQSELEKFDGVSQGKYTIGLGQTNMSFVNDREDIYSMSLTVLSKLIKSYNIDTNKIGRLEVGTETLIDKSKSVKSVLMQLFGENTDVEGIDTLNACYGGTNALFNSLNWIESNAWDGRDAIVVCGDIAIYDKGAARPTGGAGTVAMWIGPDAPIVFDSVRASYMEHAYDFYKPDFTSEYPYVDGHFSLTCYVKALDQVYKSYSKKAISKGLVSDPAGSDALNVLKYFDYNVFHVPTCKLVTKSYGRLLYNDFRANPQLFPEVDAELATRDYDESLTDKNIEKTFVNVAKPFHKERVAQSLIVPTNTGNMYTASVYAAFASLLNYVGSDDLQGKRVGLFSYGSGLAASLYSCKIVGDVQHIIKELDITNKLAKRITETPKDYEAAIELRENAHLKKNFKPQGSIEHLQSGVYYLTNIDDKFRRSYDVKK

B1: HMGR with an N-terminal SH3 domain (protein)
chain: AEYVRALFDFNGNDEEDLPFKKGDILRIRDKPEEQWWNAEDSEGKRGMIPVPYVEKYRVLTNKTVISGSKVKSLSSAQSSSSGPSSSSEEDDSRDIESLDKKIRPLEELEALLSSGNTKQLKNKEVAALVIHGKLPLYALEKKLGDTTRAVAVRRKALSILAEAPVLASDRLPYKNYDYDRVFGACCENVIGYMPLPVGVIGPLVIDGTSYHIPMATTEGCLVASAMRGCKAINAGGGATTVLTKDGMTRGPVVRFPTLKRSGACKIWLDSEEGQNAIKKAFNSTSRFARLQHIQTCLAGDLLFMRFRTTTGDAMGMNMISKGVEYSLKQMVEEYGWEDMEVVSVSGNYCTDKKPAAINWIEGRGKSVVAEATIPGDVVRKVLKSDVSALVELNIAKNLVGSAMAGSVGGFNAHAANLVTAVFLALGQDPAQNVESSNCITLMKEVDGDLRISVSMPSIEVGTIGGGTVLEPQGAMLDLLGVRGPHATAPGTNARQLARIVACAVLAGELSLCAALAAGHLVQSHMTHNRKPAEPTKPNNLDATDINRLKDGSVTCIKS
mevalonate production in E. coli, improvement [1]: reduced somewhat (to 7-fold) when the number of possible interactions was further increased
mevalonate production in E. coli, improvement [2]: mevalonate production reached a maximum ˜10-fold improvement with 6 possible interactions
